From patent publication US20140031526A1 (YISSUM RESEARCH DEVELOPMENT COMPANY OF THE HEBREW …, published 2014)

Molecular target: the molecule itself
Experiment: FPLC gel filtration before and after sonication (self-association)

B1: 6H-15mer-CBD fusion protein (dragline spider silk 15mer fused to Clostridium cellulovorans CBDclos, with His tags and S-tag) (other)
chain: MHHHHHHSSGLVPRGSGMKETAAAKFERQHMDSPDLGTDDDDKAMASGRGGLGGQGAGAAAAAGGAGQGGYGGLGSQGTSGRGGLGGQGAGAAAAAGGAGQGGYGGLGSQGTSGRGGLGGQGAGAAAAAGGAGQGGYGGLGSQGTSGRGGLGGQGAGAAAAAGGAGQGGYGGLGSQGTSGRGGLGGQGAGAAAAAGGAGQGGYGGLGSQGTSGRGGLGGQGAGAAAAAGGAGQGGYGGLGSQGTSGRGGLGGQGAGAAAAAGGAGQGGYGGLGSQGTSGRGGLGGQGAGAAAAAGGAGQGGYGGLGSQGTSGRGGLGGQGAGAAAAAGGAGQGGYGGLGSQGTSGRGGLGGQGAGAAAAAGGAGQGGYGGLGSQGTSGRGGLGGQGAGAAAAAGGAGQGGYGGLGSQGTSGRGGLGGQGAGAAAAAGGAGQGGYGGLGSQGTSGRGGLGGQGAGAAAAAGGAGQGGYGGLGSQGTSGRGGLGGQGAGAAAAAGGAGQGGYGGLGSQGTSGRGGLGGQGAGAAAAAGGAGQGGYGGLGSQGTSMAATSSMSVEFYNSNKAAQTNSITPIIKITNTADSDLNLNDVKVRYYYTSDGTQGQTFWGDHAGALLGNSYVDNTGKVTANFVKETASPTSTYDTYVEFGFASGAATLKKGQFITIQGRITKSDWSNYAQTNDYSFDASSSTPVVNPKVTGYIGGAKVLGTAPGPDVPSSIINPTSATFDLEHHHHHH
notes: Expressed in E. coli BL21(DE3) from pET30a and purified on Ni-NTA; also called Silk-CBD; 6H-Silk-CBD
  binding result: binds
